Measurements as given in the supplement of paper PMC10065799, “High-throughput profiling of sequence recognition by tyrosine kinases and SH2 domains using bacterial peptide display” (eLife, 2023).

What was measured:
[1] = molecular target: EPHB2 (UniProt P29323); test: phosphorylation enrichment, bacterial display (enrichment ratio); higher = better substrate or ligand; peptides without Tyr show the background
[2] = molecular target: MERTK (UniProt Q12866); test: as above
[3] = molecular target: FGFR1 (UniProt P11362); test: as above
Chain of FGFR1 (P11362 whole entry, looked up): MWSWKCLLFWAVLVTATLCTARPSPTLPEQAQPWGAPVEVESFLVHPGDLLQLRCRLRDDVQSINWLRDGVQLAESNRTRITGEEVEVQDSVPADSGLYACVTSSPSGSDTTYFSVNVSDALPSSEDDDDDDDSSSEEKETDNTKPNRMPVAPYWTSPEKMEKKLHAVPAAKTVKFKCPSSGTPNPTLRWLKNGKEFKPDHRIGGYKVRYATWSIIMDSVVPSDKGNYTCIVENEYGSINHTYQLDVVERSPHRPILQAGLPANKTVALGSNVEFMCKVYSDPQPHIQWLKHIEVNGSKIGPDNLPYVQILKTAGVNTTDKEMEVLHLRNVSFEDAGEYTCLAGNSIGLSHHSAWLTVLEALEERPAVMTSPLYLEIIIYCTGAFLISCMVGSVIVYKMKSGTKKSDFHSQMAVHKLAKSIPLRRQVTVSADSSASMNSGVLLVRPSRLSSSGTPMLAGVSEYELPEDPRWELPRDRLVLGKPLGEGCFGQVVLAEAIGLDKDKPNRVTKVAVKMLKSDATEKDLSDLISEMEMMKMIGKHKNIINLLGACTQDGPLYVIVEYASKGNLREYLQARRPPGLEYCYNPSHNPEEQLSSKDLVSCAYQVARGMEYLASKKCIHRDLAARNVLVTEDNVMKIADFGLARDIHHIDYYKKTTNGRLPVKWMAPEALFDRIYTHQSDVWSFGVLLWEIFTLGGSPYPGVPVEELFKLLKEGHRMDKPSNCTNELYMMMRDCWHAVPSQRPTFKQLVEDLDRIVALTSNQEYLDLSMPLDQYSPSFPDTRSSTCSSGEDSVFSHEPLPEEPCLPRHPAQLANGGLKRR

[4] = system: AncSZ; test: as above
[5] = system: Fer (mouse); test: as above
[6] = molecular target: EPHB1 (UniProt P54762); test: as above
Chain of EPHB1 (P54762 whole entry, looked up): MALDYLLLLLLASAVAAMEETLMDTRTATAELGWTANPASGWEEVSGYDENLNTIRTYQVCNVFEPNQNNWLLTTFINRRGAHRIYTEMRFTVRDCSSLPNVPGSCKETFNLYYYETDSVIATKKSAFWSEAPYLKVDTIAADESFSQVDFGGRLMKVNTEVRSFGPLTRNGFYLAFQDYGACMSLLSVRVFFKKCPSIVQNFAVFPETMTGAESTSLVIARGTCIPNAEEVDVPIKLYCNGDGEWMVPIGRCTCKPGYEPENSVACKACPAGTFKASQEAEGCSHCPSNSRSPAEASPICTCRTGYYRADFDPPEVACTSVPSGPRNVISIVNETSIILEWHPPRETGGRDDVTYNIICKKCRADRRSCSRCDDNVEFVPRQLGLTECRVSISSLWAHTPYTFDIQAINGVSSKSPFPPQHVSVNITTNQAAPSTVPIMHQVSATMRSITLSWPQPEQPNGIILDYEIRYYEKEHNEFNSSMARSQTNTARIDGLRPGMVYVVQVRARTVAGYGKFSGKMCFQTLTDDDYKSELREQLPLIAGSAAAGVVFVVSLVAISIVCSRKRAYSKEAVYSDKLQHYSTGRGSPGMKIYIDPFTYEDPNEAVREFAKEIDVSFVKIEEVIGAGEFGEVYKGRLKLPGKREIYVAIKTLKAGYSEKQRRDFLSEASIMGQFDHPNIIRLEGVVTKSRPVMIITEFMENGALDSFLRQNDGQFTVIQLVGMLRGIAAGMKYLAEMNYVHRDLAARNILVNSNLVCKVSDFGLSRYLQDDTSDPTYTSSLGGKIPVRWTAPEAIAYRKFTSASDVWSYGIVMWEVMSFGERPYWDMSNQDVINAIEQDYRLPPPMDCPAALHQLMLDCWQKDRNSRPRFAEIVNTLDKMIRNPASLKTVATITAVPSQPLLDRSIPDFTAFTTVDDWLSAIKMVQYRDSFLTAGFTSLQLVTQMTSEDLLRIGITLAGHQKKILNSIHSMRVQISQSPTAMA

[7] = molecular target: Fes (UniProt P07332); test: as above
[8] = molecular target: Hck (UniProt P08631); test: as above
[9] = molecular target: FGFR3 (UniProt P22607); test: as above
[10] = system: c-Abl (mouse); test: as above
[11] = molecular target: Jak2 (UniProt O60674); test: as above
[12] = molecular target: Fyn (UniProt P06241); test: as above
Chain of Fyn (P06241 whole entry, looked up): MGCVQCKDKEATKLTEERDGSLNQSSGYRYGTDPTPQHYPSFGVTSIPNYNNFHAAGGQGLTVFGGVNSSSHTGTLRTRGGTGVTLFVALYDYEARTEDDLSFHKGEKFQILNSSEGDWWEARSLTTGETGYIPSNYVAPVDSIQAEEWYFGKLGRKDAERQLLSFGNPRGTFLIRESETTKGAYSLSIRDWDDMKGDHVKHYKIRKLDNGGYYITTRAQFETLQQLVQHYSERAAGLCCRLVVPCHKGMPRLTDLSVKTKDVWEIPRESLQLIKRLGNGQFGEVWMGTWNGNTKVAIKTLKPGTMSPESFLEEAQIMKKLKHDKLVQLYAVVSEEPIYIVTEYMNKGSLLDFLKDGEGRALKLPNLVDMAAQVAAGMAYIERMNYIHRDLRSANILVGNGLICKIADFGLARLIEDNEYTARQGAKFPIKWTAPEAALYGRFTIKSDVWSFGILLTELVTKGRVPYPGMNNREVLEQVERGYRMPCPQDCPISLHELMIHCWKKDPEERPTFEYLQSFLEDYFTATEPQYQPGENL

[13] = system: c-Src; test: as above
[14] = molecular target: Grb2 SH2 (UniProt P62993); test: SH2 binding enrichment of the phosphorylated peptide, bacterial display (enrichment ratio); higher = better substrate or ligand; peptides without Tyr show the background
Chain of Grb2 SH2 (P62993 whole entry, looked up): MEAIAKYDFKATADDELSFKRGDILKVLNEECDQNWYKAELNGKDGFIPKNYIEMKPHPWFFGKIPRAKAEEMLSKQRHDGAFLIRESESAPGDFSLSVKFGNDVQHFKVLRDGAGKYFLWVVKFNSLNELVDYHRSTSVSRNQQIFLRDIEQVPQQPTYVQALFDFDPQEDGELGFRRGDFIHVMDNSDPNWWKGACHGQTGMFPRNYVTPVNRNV

[15] = molecular target: c-Src SH2; test: as above
[16] = molecular target: SHP2-C SH2; test: as above
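For SH2 binding enrichment of the phosphorylated peptide, bacterial display in this document: peptide library displayed on the E. coli surface as eCPX fusions, selected cells deep-sequenced, score is each peptide's frequency after selection divided by its frequency in the input.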
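For phosphorylation enrichment, bacterial display in this document: 11-residue human phosphosite peptides and single-mutation variants displayed on the E. coli surface, counted by deep sequencing, each peptide's frequency after selection divided by its frequency in the unselected input library; frequency after pTyr selection over input frequency; kinase dosed for 20-30% of maximal phosphorylation in three min.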

Chain of EPHB2 (P29323 whole entry, looked up): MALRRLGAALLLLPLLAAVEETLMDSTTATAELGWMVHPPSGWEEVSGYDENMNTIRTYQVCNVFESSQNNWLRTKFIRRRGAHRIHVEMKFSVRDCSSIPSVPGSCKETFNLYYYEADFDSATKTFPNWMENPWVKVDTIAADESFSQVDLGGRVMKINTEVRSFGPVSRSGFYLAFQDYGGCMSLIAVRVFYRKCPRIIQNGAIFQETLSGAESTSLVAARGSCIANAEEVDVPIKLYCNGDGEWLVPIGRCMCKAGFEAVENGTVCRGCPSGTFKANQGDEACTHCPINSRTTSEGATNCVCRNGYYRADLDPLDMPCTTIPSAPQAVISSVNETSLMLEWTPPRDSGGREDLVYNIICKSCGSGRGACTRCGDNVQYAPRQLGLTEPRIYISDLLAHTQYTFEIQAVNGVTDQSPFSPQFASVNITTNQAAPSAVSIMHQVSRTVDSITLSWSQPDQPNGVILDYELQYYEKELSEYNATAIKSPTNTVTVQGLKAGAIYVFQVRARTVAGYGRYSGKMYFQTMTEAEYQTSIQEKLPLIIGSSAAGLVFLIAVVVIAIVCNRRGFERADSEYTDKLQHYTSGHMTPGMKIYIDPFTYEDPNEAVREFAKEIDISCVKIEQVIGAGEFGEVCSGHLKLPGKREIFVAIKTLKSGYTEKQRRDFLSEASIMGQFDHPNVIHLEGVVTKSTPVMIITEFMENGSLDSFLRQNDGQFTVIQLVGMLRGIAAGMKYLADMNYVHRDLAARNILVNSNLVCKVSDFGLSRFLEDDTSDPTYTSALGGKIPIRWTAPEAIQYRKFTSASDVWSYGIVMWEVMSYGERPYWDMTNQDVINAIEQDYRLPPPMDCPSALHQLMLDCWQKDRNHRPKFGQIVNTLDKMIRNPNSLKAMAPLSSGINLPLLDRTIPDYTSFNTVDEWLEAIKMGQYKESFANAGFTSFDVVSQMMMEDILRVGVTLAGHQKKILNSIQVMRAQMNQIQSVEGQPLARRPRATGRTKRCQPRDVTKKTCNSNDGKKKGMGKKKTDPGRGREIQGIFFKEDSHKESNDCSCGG
Chain of MERTK (Q12866 whole entry, looked up): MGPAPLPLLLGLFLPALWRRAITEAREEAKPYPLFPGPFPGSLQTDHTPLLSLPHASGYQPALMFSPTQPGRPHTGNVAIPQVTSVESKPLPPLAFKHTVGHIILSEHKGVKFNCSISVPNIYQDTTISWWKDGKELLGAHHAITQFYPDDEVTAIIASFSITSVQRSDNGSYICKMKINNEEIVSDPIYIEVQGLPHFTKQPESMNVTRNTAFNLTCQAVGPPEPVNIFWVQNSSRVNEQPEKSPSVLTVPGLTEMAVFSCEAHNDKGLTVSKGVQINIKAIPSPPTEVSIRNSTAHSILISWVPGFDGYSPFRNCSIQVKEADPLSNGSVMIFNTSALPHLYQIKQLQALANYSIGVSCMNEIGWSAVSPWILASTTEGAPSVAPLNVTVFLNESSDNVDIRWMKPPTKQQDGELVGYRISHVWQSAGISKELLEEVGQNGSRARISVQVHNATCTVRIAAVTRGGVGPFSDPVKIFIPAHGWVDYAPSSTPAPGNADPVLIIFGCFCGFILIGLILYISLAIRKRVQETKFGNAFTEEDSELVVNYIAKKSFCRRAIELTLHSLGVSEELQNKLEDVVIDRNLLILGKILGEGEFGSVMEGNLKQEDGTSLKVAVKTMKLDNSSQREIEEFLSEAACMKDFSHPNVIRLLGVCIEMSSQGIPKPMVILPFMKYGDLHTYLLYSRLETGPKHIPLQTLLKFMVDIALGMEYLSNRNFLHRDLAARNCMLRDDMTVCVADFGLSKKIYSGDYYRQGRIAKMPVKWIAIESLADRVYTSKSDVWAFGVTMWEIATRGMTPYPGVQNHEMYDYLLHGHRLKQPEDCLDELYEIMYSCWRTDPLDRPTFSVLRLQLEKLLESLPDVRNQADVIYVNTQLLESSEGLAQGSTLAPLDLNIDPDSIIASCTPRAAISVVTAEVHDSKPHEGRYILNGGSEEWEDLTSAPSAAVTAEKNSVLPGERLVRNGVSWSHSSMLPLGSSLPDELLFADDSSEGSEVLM

Sequence | phosphorylation enrichment [1] | phosphorylation enrichment [2] | phosphorylation enrichment [3] | phosphorylation enrichment [4] | phosphorylation enrichment [5] | phosphorylation enrichment [6] | phosphorylation enrichment [7] | phosphorylation enrichment [8] | phosphorylation enrichment [9] | phosphorylation enrichment [10] | phosphorylation enrichment [11] | phosphorylation enrichment [12] | phosphorylation enrichment [13] | SH2 binding enrichment [14] | SH2 binding enrichment [15] | SH2 binding enrichment [16]
ILDEAYVMASM [EGFR_Y764_V769M] | 0.553 | 0.447 | 0.525 | 1.22 | 0.557 | 0.461 | 1.19 | 0.528 | 0.62 | 0.746 | 0.965 | 0.539 | 0.643 | 0.66 | 0.424 | 0.633
ILGLEYSLRVP [HELZ2_Y1304] | 0.733 | 0.431 | 0.573 | 1.03 | 0.48 | 0.49 | 1.22 | 0.567 | 0.637 | 0.753 | 1.05 | 0.515 | 0.947 | 0.782 | 0.484 | 0.938
ILTYKYLQKPM [KIT_Y547] | 0.591 | 0.487 | 0.396 | 0.666 | 0.495 | 0.686 | 1.15 | 0.458 | 0.518 | 0.654 | 0.801 | 0.41 | 0.521 | 0.729 | 0.428 | 0.362
INVTIYGKTFR [EFHC1_Y177_I174V] | 0.588 | 0.644 | 0.539 | 1.18 | 0.625 | 0.631 | 1.29 | 0.609 | 0.756 | 0.868 | 1.1 | 0.547 | 0.641 | 0.76 | 0.572 | 0.581
IQTDGYRAPEA [UHMK1_Y197] | 0.496 | 0.491 | 0.447 | 0.601 | 0.461 | 0.782 | 0.829 | 0.717 | 0.382 | 0.725 | 1.25 | 0.428 | 0.398 | 0.763 | 0.505 | 0.727
IRFPPYTDWNQ [ALDH3B2_Y365_H361R_YF] | 0.392 | 0.421 | 0.54 | 0.741 | 0.53 | 0.396 | 0.739 | 0.439 | 0.493 | 0.45 | 0.555 | 0.395 | 0.328 | 0.886 | 0.768 | 0.748
IRFSDYVEVAD [PHACTR1_Y525] | 0.977 | 0.434 | 1.88 | 1.41 | 0.431 | 1.42 | 1.01 | 0.519 | 1.58 | 0.755 | 1.01 | 0.538 | 0.448 | 1.01 | 0.58 | 0.838
IRKTEYPFSSE [ATP2C1_Y452_A450T] | 0.397 | 0.348 | 0.466 | 0.582 | 0.339 | 0.426 | 0.837 | 0.405 | 0.449 | 0.549 | 0.599 | 0.401 | 0.428 | 0.928 | 0.587 | 0.807
IRNRDYDDIDD [TTYH2_Y424_T419I] | 0.575 | 0.541 | 0.7 | 1.07 | 0.494 | 0.466 | 0.887 | 0.515 | 0.676 | 0.649 | 0.676 | 0.594 | 0.491 | 0.628 | 0.537 | 0.486
IRTIDYRYTVW [IDS_Y497] | 0.566 | 0.422 | 0.554 | 1.15 | 0.57 | 0.666 | 1.16 | 0.535 | 0.732 | 0.695 | 0.929 | 0.493 | 0.398 | 1.04 | 0.985 | 1.31
ISIFYYAKGQP [MPZ_Y82_H81Y] | 0.61 | 0.504 | 0.563 | 1.38 | 0.496 | 0.532 | 1.72 | 0.429 | 0.674 | 1.19 | 1.36 | 0.52 | 0.649 | 0.78 | 0.409 | 0.656
ISSLLYELLEE [TRPC6_Y896_R895L] | 4.5 | 6.1 | 0.953 | 1.94 | 7.37 | 7.24 | 1.94 | 3.25 | 1.35 | 1.31 | 1.21 | 2.14 | 3.33 | 1.04 | 0.576 | 0.619
ITLPIYTKESE [ANK2_Y1455] | 0.499 | 1.75 | 0.722 | 0.961 | 0.485 | 0.641 | 1.19 | 0.907 | 0.76 | 0.848 | 1.11 | 0.88 | 0.974 | 0.845 | 0.515 | 0.72
ITNLLYHVVGG [GBA_Y412_W417G] | 3.36 | 7.37 | 6.43 | 1.18 | 1.32 | 5.68 | 1.12 | 5.76 | 5.48 | 1.12 | 2.67 | 5.17 | 3.81 | 1.07 | 0.953 | 1.12
ITNVLYHVVGW [GBA_Y412_L410V] | 1.32 | 6.81 | 6.43 | 1.06 | 1.82 | 2.31 | 1.25 | 4.59 | 5.06 | 4.13 | 1.87 | 3.01 | 3.13 | 1.78 | 1.27 | 1.24
ITVPAYFNDSQ [HSPA9_Y196] | 0.491 | 0.456 | 0.581 | 0.895 | 0.54 | 0.473 | 1.06 | 0.528 | 0.672 | 0.785 | 1.02 | 0.553 | 0.536 | 1.08 | 0.498 | 0.878
IVFTSYFLTIL [TAS2R16_Y239] | 0.709 | 0.476 | 0.641 | 1.45 | 0.511 | 0.676 | 1.89 | 0.633 | 0.976 | 1.05 | 1.76 | 0.578 | 0.514 | 0.918 | 0.897 | 0.955

Sequence | phosphorylation enrichment [1] | phosphorylation enrichment [2] | phosphorylation enrichment [3] | phosphorylation enrichment [4] | phosphorylation enrichment [5] | phosphorylation enrichment [6] | phosphorylation enrichment [7] | phosphorylation enrichment [8] | phosphorylation enrichment [9] | phosphorylation enrichment [10] | phosphorylation enrichment [11] | phosphorylation enrichment [12] | phosphorylation enrichment [13] | SH2 binding enrichment [14] | SH2 binding enrichment [15] | SH2 binding enrichment [16]
IYQASYYRRGD [LTK_Y676_R673Q] | 0.66 | 6.37 | 0.479 | 0.822 | 1.43 | 0.659 | 0.695 | 10.6 | 0.473 | 11.5 | 0.528 | 7.6 | 6.2 | 0.628 | 0.412 | 0.742
KAEELYIGVTV [EFHC2_Y509] | 0.772 | 1.42 | 2.35 | 2.15 | 5.31 | 0.921 | 1.35 | 2.75 | 2.33 | 0.988 | 0.966 | 2.06 | 2.2 | 0.648 | 0.411 | 0.756
KALKQYRASPS [DDX27_Y763_G766S] | 0.344 | 0.401 | 0.328 | 0.411 | 0.368 | 0.312 | 0.423 | 0.318 | 0.309 | 0.552 | 0.439 | 0.373 | 0.43 | 0.801 | 0.537 | 0.691
KANEFYPVVII [ADAMTS18_Y765_L769I_YF] | 0.695 | 0.386 | 1.9 | 1.03 | 0.456 | 0.411 | 1.16 | 0.458 | 1.26 | 0.663 | 1.06 | 0.458 | 0.478 | 0.626 | 0.349 | 0.597
KAPPTYDTVLQ [CYP3A4_Y347] | 7.86 | 1.89 | 0.36 | 0.686 | 2.09 | 6.72 | 0.735 | 2.98 | 0.483 | 0.663 | 0.576 | 2.46 | 1.44 | 0.887 | 2.28 | 0.556
KCCCIYEKPRS [PPP1R11_Y64_A69S] | 0.892 | 1.17 | 0.456 | 1.86 | 7.18 | 1.03 | 1.01 | 2.45 | 0.667 | 3.97 | 0.642 | 2.07 | 3.04 | 0.708 | 0.602 | 0.685
KDAGDYKYKAK [LRIT3_Y326_C328Y] | 0.366 | 0.32 | 0.337 | 0.398 | 0.256 | 0.353 | 0.604 | 0.346 | 0.387 | 0.571 | 0.519 | 0.308 | 0.319 | 0.68 | 0.415 | 0.515
KDDEKYLDVIR [MTM1_Y260] | 0.49 | 0.434 | 0.453 | 0.961 | 0.405 | 0.461 | 0.971 | 0.501 | 0.663 | 0.689 | 0.987 | 0.433 | 0.409 | 0.874 | 0.515 | 0.64
KDGNGYISAAE [CALM1_Y100] | 0.491 | 0.47 | 0.477 | 0.646 | 0.389 | 0.394 | 0.76 | 0.542 | 0.594 | 0.546 | 0.685 | 0.463 | 0.416 | 0.742 | 0.571 | 0.746
KDQGIYEDYVE [MYL6_Y86_T85I] | 0.853 | 0.489 | 0.58 | 1.2 | 1.03 | 0.74 | 1.08 | 1.06 | 0.672 | 0.851 | 0.936 | 2.05 | 2.02 | 0.899 | 0.535 | 0.905
KEDPEYKKKFR [FAM161A_Y278_E273K] | 0.589 | 0.433 | 0.534 | 0.749 | 0.455 | 0.499 | 1.07 | 0.477 | 0.6 | 0.824 | 1.02 | 0.34 | 0.502 | 0.921 | 0.513 | 0.873
KELAKYYKLHH [AK7_Y390_N389K] | 0.363 | 0.422 | 0.377 | 0.472 | 0.383 | 0.366 | 0.472 | 0.39 | 0.418 | 0.46 | 0.379 | 0.35 | 0.439 | 1.01 | 0.782 | 0.622
KELSSYKHLTL [SLIT2_Y776_N775S] | 0.38 | 0.404 | 0.393 | 0.556 | 0.497 | 0.315 | 0.53 | 0.445 | 0.406 | 0.511 | 0.491 | 0.427 | 0.451 | 0.757 | 0.481 | 0.497
KERNQYGEVMV [MMP21_Y347] | 0.436 | 0.404 | 0.502 | 0.587 | 0.653 | 0.455 | 0.734 | 0.507 | 0.463 | 0.683 | 0.547 | 1.39 | 0.744 | 0.93 | 0.391 | 0.825
KFEDVYVRICL [B3GALNT1_Y269_G271R] | 0.582 | 0.436 | 0.512 | 1.64 | 0.593 | 0.655 | 1.38 | 0.479 | 0.926 | 1.03 | 1.28 | 0.452 | 0.545 | 0.816 | 0.472 | 0.758
KFLENYLNRLL [PLD2_Y169_YF] | 0.642 | 0.37 | 0.499 | 0.694 | 0.462 | 0.464 | 0.768 | 0.415 | 0.562 | 0.471 | 0.762 | 0.37 | 0.481 | 1.67 | 1.51 | 1.79
